These are literature values, as cited in patent US20150056205A1, “STEROID SPARING AGENTS AND METHODS OF USING SAME” (BIOGEN IDEC MA INC., priority 2004, published 2015).

One data set addresses VLA-4 (Homo sapiens, UniProt P13612). To be noted: cited from earlier work.
For the next data set, the target named is T1, α4 subunit of VLA-4 (Homo sapiens, UniProt P13612).
T1 construct: endogenous in cells; host or cells: human lymphocytes (adhering to TNF-stimulated rat brain cell cultures)
The settings on record: rat brain cells stimulated with tumor necrosis factor; cited from earlier work.

B1: mu MAb 21.6: mouse monoclonal antibody specific for the α4 subunit of VLA-4; donor immunoglobulin for the humanized antibodies (antibody, V domains shown)
VH: MKCSWVMFFLMAVVTGVNSEVQLQQSGAELVKPGASVKLSCTASGFNIKDTYIHCVKQRPEQGLEWIGRIDPANGYTKYDPKFQGKATITADTSSNTAYLQLSSLTSEDTAVYFCAREGYYGNYGVYAMDYWGQGTSVTV
VL: DIQMTQSPSSLSASLGGKVTITCKTSQDINKYMAWYQHKPGKRPRLLIHYTSALQPGIPSRFSGSGSGRDYSFNISNLEPEDIATYYCLQYDNLWTFGGGTKLEIK
B1: the “binding affinity for VLA-4” value in the data set with VLA-4 is listed as “about 10^9 M^−1”. Also, the “inhibition of human lymphocyte binding to tissue cultures of rat brain cells” value in the data set with α4 subunit of VLA-4 is given as “inhibit human lymphocyte binding”.
